Patent US20010016194A1 (priority 1999, published 2001)

What was measured:
[1] = target: T1, Raf-1 proteins present in T-cell lysates (Homo sapiens, UniProt P04049); test: Cell-free system: binding of Raf-1 from T-cell lysates to FLAG-HMK-IL-2Rβ chain fusion proteins on anti-FLAG beads, anti-Raf-1 immunoblot; settings: lysates from PHA activated peripheral blood mononuclear cells, FIG. 8b
T1 construct: endogenous in cells; host or cells: PHA-stimulated human peripheral blood mononuclear cells (T cells), lysate
Text: (ii) In order to study the interaction of IL-2Rβ chain with intracellular molecules, the FLAG-HMK-IL-2Rβ chain cytoplasmic domain fusion protein was purified from bacterial lysate using the M2 anti-FLAG monoclonal antibody in a standard affinity chromatography procedure. More specifically, bacterial lysate proteins were absorbed onto anti-FLAG (M2) affinity column (IBI-Kodak, New Haven, Conn., USA). After washing the column, the adsorbed proteins were eluted with either glycine buffer (pH 3) or FLAG peptide (10^−4M). Proteins in various fractions were analyzed for expected size (about 33 kDa) and purity after separation on SDS-PAGE and Commassie blue staining. The presence of a functional HMK recognition site was confirmed by phosphorylation of the purified 33 kDa IL-2Rβ chain fusion protein by HMK. More specifically, the eluted fusion proteins were tested for susceptibility to phosphorylation by incubation with the catalytic subunit of bovine heart muscle kinase (Sigma) (1 U/ul) in buffer containing 20 mM Tric-HCl, pH 7.5, 1 mM DTT, 100 mM NaCl, 10 mM MgCl2 and 1μCi [γ^32p] ATP for 30 min at 37° C. followed by SDS-PAGE and autoradiography. Purified FLAG-HMK-IL-2Rβ chain fusion proteins were used as an affinity reagent to probe for cytosolic proteins present in lysates of human T cells, metabolically labeled with [^35S ]-methionine, that bind to the IL-2Rβ chain. […] For [^35S]-methionine labeling, the cells were suspended at 4×10^7 cells/ml at 37° C. followed by addition of 0.5 mCi of [^35S]-methionine for 4 hours prior to lysis in Dounce homogenization buffer and application of the lysate to the affinity column. Several [^35S]-labeled proteins were retained by the FLAG-HMK-IL-2Rβ chain cytosolic domain fusion protein bound to the affinity column. One of these proteins was identified as Raf-1 by immunoblotting using a polyclonal antibody specific for the SP-63 peptide which corresponds to the C-terminal fragment of Raf-1. A molar excess of the competing SP-63 peptide blocked binding of the anti-SP-63 antibody to Raf-1.
Using the basic cell-free system described above, a number of FLAG-HMK-IL-2Rβ chain wild type FLAG-HMK-IL2Rβ chain deletion mutant proteins were then studied with respect to this specific interaction with Raf-i proteins present in T-cell lysates. These FLAG-HMK-IL2Rβ chain wild type (WT) and deletion mutants lacking certain defined domains of the IL-2Rβ chain were used to identify the IL-2Rβ chain domain involved in Raf-1 binding. Assay conditions were similar to those described above. […] In FIG. 1, there is shown, schematically, all of the constructs, i.e., FLAG-HMK-IL-2Rβ chain fusion proteins produced in transformed bacterial cells and used in this study. These FLAG-HMK- fusion proteins-coated beads were then used as affinity reagents to absorb Raf-1 proteins present in T-cell lysates. T-cell derived proteins bound to FLAG-HMK fusion proteins were then eluted using buffer containing FLAG peptide, separated on SDS-PAGE, transferred onto Immobilon membrane and blotted with anti-Raf-1 antibody.
The absorbed proteins were washed, eluted with FLAG peptide and probed for the presence of Raf-1 and 14-3-3 proteins on immunoblots. […] Washed cells (about 4×10^7) were lysed in Dounce homogenization buffer, centrifuged (15×10^3 xg for 15 min.) and supernatants applied onto washed anti-FLAG (M2) affinity column (IBI-Kodak) coated with bacterial lysates interacted with one of the FLAG-HMK fusion proteins. […]

14-3-3 proteins = test: COS cells transfected with IL-2Rβ chain constructs, immunoprecipitated with Mik-β1, blotted with anti-14-3-3; format: cell-based; settings: transfected COS cell lysates, FIG. 8a
Procedure: (§1) COS cells were transfected via the DOTAP method (Boehringer-Mannheim, Indianapolis, Ind.) following the manufacturer's instructions. The transfection cocktail contained 5 μg of DNA total and […] of DOTAP in a final volume of […] HBS (25mM HEPES, pH 7.4 and lOOmM NaCl). The COS cells were grown in DMEM medium supplemented with 10% heat-inactivated fetal calf serum, penicillin/streptomycin, 25mM HEPES, pH 7.4, and L-glutamine. The COS cells were exposed to the transfection cocktail for 12 hours, washed and subsequently cultured in fresh medium. 24 hours after washing approximately 3×10^5 cells were harvested and washed twice in chilled PBS. A lysis buffer was prepared and consisted of […] NaCl, 50mM Tris pH=7.4, 0.5% CHAPS (Pierce), […] (Sigma), supplemented with the following protease inhibitors immediately before use: aprotinin (Sigma) 2.5mg/ml, leupeptin (Boehringer-Mannheim) 2.5 mg/ml; Pepstatin A (Boehringer-Mannheim) […], PMSF (Sigma) […], NaF (Sigma) 100mm and sodium orthovanadate (Sigma) lmM. The transfected COS cells were lysed in 0.5 ml of lysis buffer on ice for 10 minutes, and subsequently centrifuged at 12,000 xg for 5 minutes, remaining supernatants were collected, and supplemented with pre-immune serum and protein G-agarose beads (BRL-Gibco, Gaithersburg, MD), which had been previously washed in lysis buffer. […]

Raf-1 = test: COS cells transfected with IL-2Rβ chain constructs, immunoprecipitated with Mik-β1, blotted with anti-Raf-1; format: cell-based; settings: transfected COS cell lysates, FIG. 8a
Procedure: as §1

B1: IL-2Rβ-WT: human IL-2Rβ chain wild type expressed in COS cells from pRcCMV (protein)
chain: AVNGTSQFTCFYNSRANISCVWSQDGALQDTSCQVHAWPDRRRWNQTCELLPVSQASWACNLILGAPDSQKLTTVDIVTLRVLCREGVRWRVMAIQDFKPFENLRLMAPISLQVVHVETHRCNISWEISQASHYFERHLEFEARTLSPGHTWEEAPLLTLKQKQEWICLETLTPDTQYEFQVRVKPLQGEFTTWSPWSQPLAFRTKPAALGKDTIPWLGHLLVGLSGAFGFIILVYLLINCRNTGPWLKKVLKCNTPDPSKFFSQLSSEHGGDVQKWLSSPFPSSSFSPGGLAPEISPLEVLERDKVTQLLLQQDKVPEPASLSSNHSLTSCFTNQGYFFFHLPDALEIEACQVYFTYDPYSEEDPDEGVAGAPTGSSPQPLQPLSGEDDAYCTFPSRDDLLLFSPSLLGGPSPPSTAPGGSGAGEERMPPSLQERVPRDWDPQPLGPPTPGVPDLVDFQPPPELVLREAGEEVPDAGPREGVSFPWSRPPGQGEFRALNARLPLNTDAYLSLQELQGQDPTHLV
Question: Which “binding to Raf-1” value [1] does the source give for B1 here?
Answer: Its value is “bound to Raf-1”.

Question: What about the “binding of 14-3-3 proteins” value (14-3-3 proteins) of the same molecule?
Answer: The value was “bound”.

Question: And the “binding of Raf-1” value (Raf-1)?
Answer: Its value is “bound”.
